Here are results for 2 molecules from paper PMC3283256 (The Journal of Biological Chemistry, 2010).

In the experiment the target is His-tagged N-WASP (rat, UniProt O08816 1-501). Nature of the experiment: pull-down.
Chain of His-tagged N-WASP (O08816 whole entry): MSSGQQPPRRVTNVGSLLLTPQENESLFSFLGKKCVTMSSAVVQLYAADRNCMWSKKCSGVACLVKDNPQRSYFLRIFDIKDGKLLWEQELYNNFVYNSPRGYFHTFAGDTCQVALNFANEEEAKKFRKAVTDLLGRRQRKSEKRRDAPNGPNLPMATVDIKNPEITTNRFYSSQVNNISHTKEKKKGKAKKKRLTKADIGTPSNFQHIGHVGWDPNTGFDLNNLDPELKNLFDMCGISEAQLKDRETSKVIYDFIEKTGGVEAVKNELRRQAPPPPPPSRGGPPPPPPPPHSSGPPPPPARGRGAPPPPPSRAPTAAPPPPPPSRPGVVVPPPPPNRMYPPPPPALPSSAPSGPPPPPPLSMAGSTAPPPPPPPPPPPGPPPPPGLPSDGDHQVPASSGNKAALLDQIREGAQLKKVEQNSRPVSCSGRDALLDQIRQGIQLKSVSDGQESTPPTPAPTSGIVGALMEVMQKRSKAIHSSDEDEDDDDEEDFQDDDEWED

B1: GST-Gas7 (natural protein, mouse, UniProt Q60780 1-421, looked up)
chain: MATALQKPGMVPPPPGEESQTVILPPGWHSYLSPQGRRYYVNTTTNETTWERPSSSPGISASPAPHRSSLPTTVNGYHASGTPAHPPETAHMSLRKSTGDSQNLGSSSPGRKQSKENTITINCVTFPHPDTMPEQQLLKPTEWSYCDYFWADKKDPQGNGTVAGFELLLQKQLKGKQMQKEMSEFIRERIKIEEEYAKNLAKLSQNSLAAQEEGSLGEAWAQVKKSLADEAEVHLKFSAKLHSEVEKPLMNFRENFKKDMKKCDHHIADLRKQLASRYASVEKARKALTERQKDLEMKTQQLEIKLSNKTEEDIKKARRKSTQAGDDLMRCVDLYNQAQSKWFEEMVTTTLELERLEVERVEMIRQHLCQYTQLRHETDMFNQSTVEPVDQLLRKVDPAKDRELWVREHKTGNIRPVDMEI
Consider B1, for which the binding result is on record as “binds”.

B2: GST-Gas7WW2 (domain or fragment, mouse, UniProt Q60780 1-151, looked up)
chain: MATALQKPGMVPPPPGEESQTVILPPGWHSYLSPQGRRYYVNTTTNETTWERPSSSPGISASPAPHRSSLPTTVNGYHASGTPAHPPETAHMSLRKSTGDSQNLGSSSPGRKQSKENTITINCVTFPHPDTMPEQQLLKPTEWSYCDYFWA
As for B2, the binding result is “binds”.
